Results taken from PMC2172197.
Like-named read-outs stand apart in the source and are kept apart here.

Legend:
[1] = target: pFd-protAHis (preferredoxin fused to Staphylococcal protein A, COOH-terminal hexahistidine tag); test: pull-down
[2] = target: pFd-protAHis (preferredoxin fused to Staphylococcal protein A, COOH-terminal hexahistidine tag); test: pull-down; remark: listed apart in the source

**Q.** For “[35S]atToc159-K868R (from UniProt O81283 1-1503) (receptor)”, which percent less binding than wild-type atToc159 [1] is on record?
**A.** 60%

**Q.** Which fold higher binding than to Fd-protAHis [1] does the source give for “[35S]atToc159G (in vitro-translated G domain of atToc159) (domain or fragment)” here?
**A.** 3 fold

**Q.** Which percent reduction of binding against GTP [2] does the source give for “[35S]atToc159 (in vitro-translated soluble atToc159) (from UniProt O81283 1-1503) (receptor)” here?
**A.** 20%

**Q.** What about the percent reduction of binding against GTP [1] of the same substance?
**A.** 20%
